This note sets out measurements from patent publication US20060294618A1 (CORNELL RESEARCH FOUNDATION, published 2006).

Substitutions are numbered along the chain they refer to.

Test [1] concerns the target T1, TEV-HAT VPg, yeast two-hybrid bait fusion protein expressed from pEG202 (Tobacco etch virus, strain HAT, UniProt P0A7C2 1-202; P04517 1850-2037).
T1 sequence (looked up): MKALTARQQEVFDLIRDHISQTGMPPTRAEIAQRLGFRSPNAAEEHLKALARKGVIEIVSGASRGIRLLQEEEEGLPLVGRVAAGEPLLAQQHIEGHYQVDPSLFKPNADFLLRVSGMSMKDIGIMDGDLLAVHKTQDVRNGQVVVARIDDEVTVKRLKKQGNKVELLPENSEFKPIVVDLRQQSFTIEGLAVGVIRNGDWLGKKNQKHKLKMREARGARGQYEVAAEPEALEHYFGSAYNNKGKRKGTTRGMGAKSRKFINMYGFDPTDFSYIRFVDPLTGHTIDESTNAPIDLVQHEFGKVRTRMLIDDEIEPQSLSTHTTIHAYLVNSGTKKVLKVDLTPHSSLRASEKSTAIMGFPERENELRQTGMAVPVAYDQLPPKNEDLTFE
Description: yeast two-hybrid, beta-galactosidase assay.
Description: Bait plasmid pEG202 was used to express the fusion protein TEV-HAT VPg. The prey plasmid pJG4-5 was used to express pepper eIF4E. pEG202: Pto and PJG4-5:AvrPto were served as a positive control.

The target in the next test is T2, GST-VPgHAT (Tobacco etch virus, strain HAT, UniProt P04517 1850-2037).
T2 construct: Immobilized on glutathione-Sepharose 4B beads; also called TEV-HAT VPg (GST fusion); not shown: glutathione S-transferase (GST)
T2 sequence (looked up): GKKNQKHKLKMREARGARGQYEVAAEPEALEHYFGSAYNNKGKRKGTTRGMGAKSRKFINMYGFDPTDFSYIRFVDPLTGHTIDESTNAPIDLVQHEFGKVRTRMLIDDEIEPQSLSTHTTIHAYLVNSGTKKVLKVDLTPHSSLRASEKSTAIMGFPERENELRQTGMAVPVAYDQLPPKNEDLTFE
As to the kind of experiment: GST pull-down, 35S-labeled in vitro-translated eIF4E.

Description for GST-VPgHAT: The input protein panel represents equivalent amounts of GST, GST-VPgHAT, and GST-VPgNW used in the pull-downs assay and 20% of in vitro-translated eIF4Es.
GST, GST-VPgHAT, and GST-VPgNW proteins were bound to 10 μl GST-Sepharose beads and resuspended in 195 μl IPAB-gelatin buffer (20 mM HEPES pH7.8, 150 mM KCl, 0.1% gelatin, 0.1% Triton X-100, 0.1% NP-40, 5 mM MgCl₂, 2 mM DTT). TnT translation products (5 μl) were added to prepared GST fusion Sepharose, mixed by end-over rotation at 4° C. for overnight, and washed 3× with 1×PBS buffer containing 2 mM DTT. The Sepharose beads were resuspended in 20 μl SDS-PAGE loading buffer and incubated for 2 min at 100° C. Released proteins were separated by SDS-PAGE. Following electrophoresis, gels were fixed, dried, and exposed to a phosphorimaging screen.

B1: eIF4E-234 mutant translation initiation factor eIF4E (Capsicum chinense PI 159234, pvr1 allele), yeast two-hybrid prey fusion expressed from pJG4-5 (other)
chain: MATAEMEKTTTFDEAEKVKLNANEADDEVEEGEIVEETDDTTSYLSKEIAAKHPLEHSWTFWFDNTVAKSRQAAWGSSLRNVYTFSTVEDFWGAYNNIHHPSKLVVRADLHCFKHKIEPKWEDPVCANGGTWKMSFSKGKSDTSWLYTLLAMIGHQFDHEDEICGAVVSVRGKGEKISLWTKNAANETAQVSIGKQWKQFLDYSDSVGFIFHDDAKRLDRNAKNRYTV
notes: not shown: fusion partner encoded by prey plasmid pJG4-5
For the molecule B1, in test [1], the binding result was “no binding”.

B2: eIF4E-DEMP (pvr2^2 / pvr1^2), 35S-labeled, translated in vitro from pET16b (other)
chain: B1 chain with A51T, T66P, V67E, R71K, L79R, R107G, D109N
modifications: 35S-labeled (in vitro translation in reticulocyte lysate)
notes: also called DEMP (pvr1^2); resistant allele
As for B2, the binding result with GST-VPgHAT is recorded as “no binding”.

B3: eIF4E-YY (pvr2^1 / pvr1^1), 35S-labeled, translated in vitro from pET16b (other)
chain: B1 chain with A51T, T66P, V67E, R71K, L79R, R107G
modifications: 35S-labeled (in vitro translation in reticulocyte lysate)
notes: also called YY (pvr1^1); resistant allele
With B3, the binding result with GST-VPgHAT is “no binding”.

B4: eIF4E-234 (pvr1), 35S-labeled, translated in vitro from pET16b (other)
chain: B1 chain
modifications: 35S-labeled (in vitro translation in reticulocyte lysate)
notes: also called resistant allele
For the molecule B4, the binding result with GST-VPgHAT is recorded as “no binding”.
